Columns and labels:
[1] = molecular target: GATA1 (Homo sapiens) (UniProt P15976); details: ChIP-pyrosequencing, heterozygous primary human erythroblasts; input alleles balanced; about 60:40 G:T
[2] = molecular target: TAL1 (Homo sapiens) (UniProt P17542); details: ChIP-pyrosequencing, heterozygous primary human erythroblasts; input alleles balanced; about 60:40 G:T
Chain of TAL1 (Homo sapiens) (P17542 whole entry): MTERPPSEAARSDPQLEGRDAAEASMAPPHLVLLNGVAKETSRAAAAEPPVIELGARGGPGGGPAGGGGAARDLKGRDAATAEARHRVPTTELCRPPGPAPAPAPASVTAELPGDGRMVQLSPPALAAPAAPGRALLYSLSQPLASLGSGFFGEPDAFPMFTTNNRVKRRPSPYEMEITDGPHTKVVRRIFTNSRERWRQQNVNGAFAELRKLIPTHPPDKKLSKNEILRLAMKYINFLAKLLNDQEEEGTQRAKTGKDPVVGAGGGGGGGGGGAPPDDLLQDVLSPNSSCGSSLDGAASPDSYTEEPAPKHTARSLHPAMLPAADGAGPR

Chain of GATA1 (Homo sapiens) (P15976 whole entry): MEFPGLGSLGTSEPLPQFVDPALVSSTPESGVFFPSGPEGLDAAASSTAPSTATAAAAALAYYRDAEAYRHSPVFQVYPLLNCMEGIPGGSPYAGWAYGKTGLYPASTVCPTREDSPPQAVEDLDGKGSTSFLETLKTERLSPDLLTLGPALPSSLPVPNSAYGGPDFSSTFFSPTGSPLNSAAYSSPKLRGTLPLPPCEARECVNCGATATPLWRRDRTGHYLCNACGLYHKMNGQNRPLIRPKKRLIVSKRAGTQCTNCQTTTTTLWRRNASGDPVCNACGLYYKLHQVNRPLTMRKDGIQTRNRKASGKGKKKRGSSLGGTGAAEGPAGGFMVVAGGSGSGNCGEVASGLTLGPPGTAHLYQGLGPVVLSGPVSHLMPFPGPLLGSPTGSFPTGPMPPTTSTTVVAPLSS

| Substance | binding signal (% of alleles in ChIP) [1] | binding signal (% of alleles in ChIP) [2] |
| --- | --- | --- |
| BCL11A DHS +62 rs1427407 T-allele | 40 | 40 |
| CTGNNNNNNNNNGATA (double strand) [BCL11A DHS +62 rs1427407 G-allele (half-E-box/GATA motif)] | 60 | 60 |

Source: US20150307867
